According to paper PMC4570970:

Substrate: CC(C)=CCC/C(C)=C/CC/C(C)=C/CO[P@@](=O)(O)OP(=O)(O)O
Experiment: purified protein
Details: Mg2+ active site

B1: 5-epi-aristolochene synthase (TEAS) (Nicotiana tabacum) (protein)
chain: MASAAVANYEEEIVRPVADFSPSLWGDQFLSFSIKNQVAEKYAKEIEALKEQTRNMLLATGMKLADTLNLIDTIERLGISYHFEKEIDDILDQIYNQNSNCNDLCTSALQFRLLRQHGFNISPEIFSKFQDENGKFKESLASDVLGLLNLYEASHVRTHADDILEDALAFSTIHLESAAPHLKSPLREQVTHALEQCLHKGVPRVETRFFISSIYDKEQSKNNVLLRFAKLDFNLLQMLHKQELAQVSRWWKDLDFVTTLPYARDRVVECYFWALGVYFEPQYSQARVMLVKTISMISIVDDTFDAYGTVKELEAYTDAIQRWDINEIDRLPDYMKISYKAILDLYKDYEKELSSAGRSHIVCHAIERMKEVVRNYNVESTWFIEGYTPPVSEYLSNALATTTYYYLATTSYLGMKSATEQDFEWLSKNPKILEASVIICRVIDDTATYEVEKSRGQIATGIECCMRDYGISTKEAMAKFQNMAETAWKDINEGLLRPTPVSTEFLTPILNLARIVEVTYIHNLDGYTHPEKVLKPHIINLLVDSIKI
Km: 4.47 µM
